β-galactosidase activity (Miller units) data for three substances are collected here from article PMC8268110.

Test [1] addresses Nrl1(C-term), C-terminal region (493–972 aa), BACTH fusion (S. pombe) (UniProt O42975). Kind of test: two-hybrid; bacterial two-hybrid (BACTH) in E. coli BTH101; Nrl1 or its truncations in pUT18C, RNA-processing factors in pKT25; β-galactosidase activity assay at 28 °C in Miller units; eight biological replicates.
The target in test [2] is Nrl1 (full length), BACTH fusion (S. pombe) (UniProt O42975). Described as above.
Test [3] has the same target. Kind of test: two-hybrid; bacterial two-hybrid (BACTH) in E. coli BTH101; full-length ORFs in pUT18C and pKT25, both combinations; X-gal/IPTG plates and β-galactosidase activity assay at 28 °C in Miller units; eight biological replicates.
Test [4] deals with Nrl1(N-term), N-terminal region (1–159 aa), BACTH fusion (S. pombe) (UniProt O42975). Kind of test: two-hybrid; bacterial two-hybrid (BACTH) in E. coli BTH101; Nrl1 or its truncations in pUT18C, RNA-processing factors in pKT25; β-galactosidase activity assay at 28 °C in Miller units; eight biological replicates.
Test [5] addresses Nrl1(N-term + NRDE-2), N-terminus with NRDE2 domain (1–492 aa), BACTH fusion (S. pombe) (UniProt O42975). The test is described as above.

“And” between values parts separate entries of the source, which are not always exact repeats. Identical values can stand only once.

As to Ctr1, BACTH fusion (natural protein), the β-galactosidase activity (Miller units) in test [1] is 708 Miller units; in test [2], 1080 Miller units; in test [3] it was 977 Miller units and 1090 Miller units.

For the substance Ntr2, BACTH fusion (natural protein), the β-galactosidase activity (Miller units) was 495 Miller units in test [1]; 583 Miller units in test [2]; 739 Miller units and 467 Miller units in test [3].

Mtl1, BACTH fusion (natural protein): the β-galactosidase activity (Miller units) in test [4] was 1510 Miller units; in test [5], 1560 Miller units; in test [2], 1460 Miller units; in test [3], 1440 Miller units and 1450 Miller units.
